Test results: paper PMC2133194
Read-outs that look alike come from different tables or passages of the source.

Key:
Assay in all cases: flow cytometry on cells
[1] = target: human CD34 on CHO/FTVII/C2GnT cells cotransfected with HEC-GlcNAc6ST (human) (UniProt P28906)
[2] = target: human CD34 on CHO/FTVII/C2GnT cells cotransfected with KSGal6ST (human) (UniProt P28906)
[3] = target: human CD34 on CHO/FTVII/C2GnT cells cotransfected with KSGal6ST and HEC-GlcNAc6ST (human) (UniProt P28906)
[4] = target: human CD34 on CHO/FTVII/C2GnT cells cotransfected with HEC-GlcNAc6ST (human) (UniProt P28906); remark: listed apart in the source
[5] = target: human CD34 on CHO/FTVII/C2GnT cells cotransfected with KSGal6ST (human) (UniProt P28906); remark: listed apart in the source
[6] = target: human CD34 on CHO/FTVII/C2GnT cells cotransfected with KSGal6ST and HEC-GlcNAc6ST (human) (UniProt P28906); remark: listed apart in the source

MFI of L-sel/IgM staining (KSGal6ST 0 ug, HEC-GlcNAc6ST 1.0 ug) [1]: 114 MFI | MFI of L-sel/IgM staining (KSGal6ST 0 ug, HEC-GlcNAc6ST 1.5 ug) [1]: 163 MFI | MFI of L-sel/IgM staining (KSGal6ST 1.0 ug, HEC-GlcNAc6ST 0 ug) [2]: 364 MFI | MFI of L-sel/IgM staining (KSGal6ST 1.5 ug, HEC-GlcNAc6ST 0 ug) [2]: 391 MFI | MFI of L-sel/IgM staining (KSGal6ST 0.5 ug, HEC-GlcNAc6ST 0.5 ug) [3]: 935 MFI | MFI of L-sel/IgM staining (KSGal6ST 0.5 ug, HEC-GlcNAc6ST 1.0 ug) [3]: 830 MFI | MFI of L-sel/IgM staining (KSGal6ST 1.0 ug, HEC-GlcNAc6ST 0.5 ug) [3]: 917 MFI | MFI of L-sel/IgM staining (KSGal6ST 0 ug, HEC-GlcNAc6ST 1.0 ug) [4]: 60 MFI | MFI of L-sel/IgM staining (KSGal6ST 1.0 ug, HEC-GlcNAc6ST 0 ug) [5]: 197 MFI | MFI of L-sel/IgM staining (KSGal6ST 0.5 ug, HEC-GlcNAc6ST 0.5 ug) [6]: 836 MFI
Substance: L-selectin/IgM chimera (from UniProt P18337 39-332) (Fc fusion)
